The subject of experiment [1] is HIV. As to conditions: cited from earlier work.
Experiment [2] has as its target HIV-1 gp41 (HIV-1).
Experiment [3] addresses HIV-1 gp41 (HIV-1). The source holds these as a separate data set.

Consider “NNLLRAIEAQQHLLQLTVWGIKQLQARILAVERYLKDQ [DP107]”, for which the “50% effective concentration (EC50), blocked infection of T cells” value in experiment [1] was 1000 ng/mL.

Turning to T20 (SEQ ID NO:4) (peptide), the IC50, antiviral potency by the methods of Example 2; PEG 1500 formulation in experiment [2] is 6.6 ng/mL.

Substance T1249 (SEQ ID NO:5) (peptide) had an IC50 (ng/ml), Magi-CCR5 infectivity assay; mannitol formulation in experiment [3] of 3.6 ng/mL.

Source of the values: patent US7045552B2, “Pharmaceutical composition for improved administration of HIV gp41-derived peptides, and its use in therapy” (Trimeris, Inc., priority 2002, dated 2006).
